We go through 1 substance from paper doi:10.1101/749960.

The term Kd denotes the equilibrium constant for the complex coming apart. Lower therefore signals a tighter complex.

The target of the test is isolated C-terminal domain of FusB (FusBCTD) (Pectobacterium carotovorum LMG2410). The test can be described thus: ITC. On the technique in general: Isothermal titration calorimetry measures the heat released or taken up as one component is titrated into another.

For the substance “spinach ferredoxin (FerSp) (from UniProt P00221 51-147) (natural protein)”, the Kd was found to be 8.7 µM.
